Reference: patent US20220002363A1, “COMPOSITIONS AND METHODS FOR TREATING PULMONARY DISEASE” (United States Government As Represented By The Department …, priority 2020, published 2022)
Substitutions are numbered along the chain they refer to. Entries after “also recorded” stand apart in the source; their conditions may differ.

Assays:
Fas = target: T1, Fas (Homo sapiens, UniProt P25445); experiment: Caspase 3/7 activity in Jurkat cells with Fas-activating antibody CH-11 and mut-sFasL at different molar ratios; format: cell-based; conditions: 5-hour incubation
T1 construct: host or cells: Jurkat (human leukemic T lymphocytes)
T1 sequence (P25445 26-335): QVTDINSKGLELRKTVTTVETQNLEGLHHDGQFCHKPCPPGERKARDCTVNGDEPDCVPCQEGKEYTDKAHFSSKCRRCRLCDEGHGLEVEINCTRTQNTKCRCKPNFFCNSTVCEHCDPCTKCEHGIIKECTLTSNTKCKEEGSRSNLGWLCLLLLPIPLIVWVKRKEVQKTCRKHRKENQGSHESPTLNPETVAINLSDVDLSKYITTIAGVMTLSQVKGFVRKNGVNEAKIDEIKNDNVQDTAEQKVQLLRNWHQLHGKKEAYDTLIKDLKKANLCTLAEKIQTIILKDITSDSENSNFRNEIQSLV
Method: The mixtures were incubated for 2 hours in 96-well plates pre-coated with recombinant hsFas (250 ng/ml). After washing unbound material, biotin was detected using HRP conjugated Streptavidin. […] The sFasL bound to Fas was detected using polyclonal anti-human FasL antibodies. […] Different molar ratios of the Fas-activating antibody CH-11 and mut-sFasL were added, and caspase 3/7 activity measured after 5 hours. […] Data represent the results from three separate experiments, each done in duplicate, and were analyzed by 2-way ANOVA with Sidak's post hoc analysis. […] Each dot represents individual data; lines represent means±SD. *=P<0.05; **=P<0.01, ***P<0.001.
Antibodies and Reagents. […] FLAG tagged mut-sFasL was detected using HRP anti-FLAG monoclonal antibody (Sigma-Aldrich, Cat #A85920). […]
(§1) Measurements of apoptotic cascade activation. Apoptotic cascade activation was assessed by determining caspase 3/7 activity and Annexin V externalization. Caspase-3/7 activity was measured using a commercial substrate (Caspase-Glo 3/7 Assay, Promega, Madison, Wis., Cat #G8090) following manufacturer's instructions. Annexin V was measured with a luminescent commercial assay that allows for measurement of annexin V externalization in adherent cells (RealTime-Glo Annexin V assay, Promega, Madison, Wis., Cat #JA1011). Luminescence was measured with a Synergy H4 Microplate Reader (BioTek, Winooski, Vt.). […]

WT-sFasL = target: T2, WT-sFasL (Homo sapiens, UniProt P48023); experiment: Annexin-V externalization (translocation) assay in SAEC with WT:mut sFasL mixtures; format: cell-based; conditions: WT:mut sFasL molar ratios of 1:27 and 1:81
T2 construct: made in house
T2 sequence (P48023 103-281): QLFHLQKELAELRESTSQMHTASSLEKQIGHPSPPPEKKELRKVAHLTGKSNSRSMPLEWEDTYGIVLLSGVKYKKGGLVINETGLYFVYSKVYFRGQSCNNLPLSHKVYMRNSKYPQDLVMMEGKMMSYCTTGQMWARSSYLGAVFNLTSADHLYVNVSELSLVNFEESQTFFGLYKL
Method: FIGS. 2A-D show the mut-sFasL has inhibitory properties. Highly Fas-sensitive Jurkat cells (FIG. 2A), primary human lung small airway epithelial cells (SAEC, FIG. 2B) or murine lung epithelial cells (LA4, FIG. 2D) were incubated with serial dilutions of mutated FasL, (mut sFasL). […] As a confirmatory test, the experiment was repeated using SAEC and an annexin-V translocation assay (FIG. 2C). WT=wild type (no mutant). […] Each dot represents individual data; lines represent means±SD. *=P<0.05; **=P<0.01, ***P<0.001 when compared to WT. One way ANOVA with SIdak's post hoc analysis. […]
as §1

effect on CH11 activity at very high molar ratios (Fas): increased CH11 activity
Annexin V translocation (WT-sFasL): significantly reduced
B1: mut-sFasL: mutant sFasL molecule in which 8 charged amino acids in the 26 amino acid stalk region were changed to alanine (protein)
chain: T2 sequence (P48023 103-281) with H4A, K7A, E8A, E11A, R13A, E14A, H20A, E26A
effect on caspase 3/7 activation induced by CH11 (Fas; different molar ratios of mut-sFasL and antibody): did not attenuate the caspase 3/7 activation induced by CH11; also recorded: did not inhibit the activity of CH11
